From PMC9287376

Legend:
Conditions in all cases: natural protein; chains chain; remark: other sources report otherwise
[1] = biological target: T1, wild-type trigger factor, P0A850; assay: 0.06 M GdnHCl
T1 chain: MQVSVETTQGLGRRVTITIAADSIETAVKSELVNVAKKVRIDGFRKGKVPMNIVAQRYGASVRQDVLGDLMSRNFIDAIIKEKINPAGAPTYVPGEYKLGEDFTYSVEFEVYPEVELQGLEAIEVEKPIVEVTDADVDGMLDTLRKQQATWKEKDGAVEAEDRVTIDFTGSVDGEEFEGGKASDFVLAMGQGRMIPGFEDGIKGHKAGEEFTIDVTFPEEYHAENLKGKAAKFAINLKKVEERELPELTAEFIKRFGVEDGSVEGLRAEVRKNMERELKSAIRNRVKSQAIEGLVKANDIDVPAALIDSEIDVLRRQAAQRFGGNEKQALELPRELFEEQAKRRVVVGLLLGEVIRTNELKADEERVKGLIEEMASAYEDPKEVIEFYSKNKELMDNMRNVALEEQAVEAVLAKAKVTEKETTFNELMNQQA

[2] = biological target: T1, wild-type trigger factor, P0A850; assay: 0.26 M GdnHCl
[3] = biological target: T1, wild-type trigger factor, P0A850; assay: native buffer, no denaturant

B1: wild-type trigger factor, P0A850 1-432 (protein)
chain: MQVSVETTQGLGRRVTITIAADSIETAVKSELVNVAKKVRIDGFRKGKVPMNIVAQRYGASVRQDVLGDLMSRNFIDAIIKEKINPAGAPTYVPGEYKLGEDFTYSVEFEVYPEVELQGLEAIEVEKPIVEVTDADVDGMLDTLRKQQATWKEKDGAVEAEDRVTIDFTGSVDGEEFEGGKASDFVLAMGQGRMIPGFEDGIKGHKAGEEFTIDVTFPEEYHAENLKGKAAKFAINLKKVEERELPELTAEFIKRFGVEDGSVEGLRAEVRKNMERELKSAIRNRVKSQAIEGLVKANDIDVPAALIDSEIDVLRRQAAQRFGGNEKQALELPRELFEEQAKRRVVVGLLLGEVIRTNELKADEERVKGLIEEMASAYEDPKEVIEFYSKNKELMDNMRNVALEEQAVEAVLAKAKVTEKETTFNELMNQQA
Kd [1]: 29 µM | Kd [2]: 76 µM | Kd [3]: 18.4 µM
